{
  "source": "the DeepSol protein solubility set",
  "data": [
    {"test": "soluble on expression in E. coli; label from the status in PepcDB or PDB records", "values": [
      {"sequence": "MIKKCLFPAAGYGTRFLPITKTIPKEMLPIVDKPLIQYAVEEAMEAGCEVMAIVTGRNKRSLEDYFDTSYEIEHQIQGTNKENALKSIRNIIEKCCFSYVRQKQMKGLGHAILTGEALIGNEPFAVILADDLCISHDHPSVLKQMTSLYQKYQCSIVAIEEVALEEVSKYGVIRGEWLEEGVYEIKDMVEKPNQEDAPSNLAVIGRYILTPDIFEILSETKPGKNNEIQITDALRTQAKRKRIIAYQFKGKRYDCGSVEGYIEASNAYYKKRLLEHHHHHH", "soluble on expression in E. coli": "soluble"},
      {"sequence": "MAGDPNSMMIARTLSIFIGTLLLATCSIPTRLNIPTIAITDHPKYKLLLILIDGLRADALEHGQAPQLARLASDGVHARWMTPSYPALTLPNAYTLITGLRPDHHGIVHNTMEDPLLGAFESERQEAISNGRWWGGEPIWVSAEHAGIRSATFLWPGSEASIAGTRPSRWYAYNKHISADTQITQALRWLNERGPDAPRLVILRFEQVNTAGDNFGPDSPQYAAAVNMIDSAIGRLIDSLRQHGKLTDTDVIVVSDQGIAPIPGDHAVPLERIVQLSDVHVVSDGQVLGITPLPGHESKVEAMVLGAHATYDCWRKQALPTHWHYGTHPRIPNIVCQMHEGWNALSAAQITKRNPLQMGGSSGFDPMLPSMRAVFLANGPSFMPNLLLNPINNVDIYPLLARLLGIAMAPNDGNPRALLQALRTSNTANGYTYSKRNALHLEHHHHHH", "soluble on expression in E. coli": "not soluble"},
      {"sequence": "MGSDKIHHHHHHMTRILLRNKLDECLAAWQKAGFSVLAPVKRHEMSCFGEVQKSGDMALDLVLTERTIKDQFFPQTEPLIKYRIGKQQIDSETMTPPEKKRVFFGVRPCDASGLAIDDPLFGWDYKDDYWFRRREKSVIVTIACAQADDFCMCTSVKLSPDSTKGADVMLRPLSDGSGWQVEAVSDRGTALVDTVSSLLQESSAEAAPVPQVAEKFDVEKVMEWLADKENFESQFWKDIALRCVGCGSCTFLCPTCHCFDIQDEGDTYQGIRRKNWDSCSFPLFTMHTSGHNPRNTQSTRWRQRIMHKFNYYRGKFGVNSCSGCGRCTRQCPVDMGITETLQAITNLPR", "soluble on expression in E. coli": "not soluble"},
      {"sequence": "MDTMAKINQFRDERNWRPHHNEKDLALSICLEAAELLELFQWKTAEEGIKQEERIKEELADVLIYSYMMADNLGFDLDEIIEEKLKKNALKYPVPH", "soluble on expression in E. coli": "not soluble"},
      {"sequence": "MENAGKATSLQSSRDLFHRLMSENSSGGWEKSWEAGATPWDLGKPTPVIAHLVETGSLPNGRALVPGCGTGYDVVAMASPDRHVVGLDISKTAVERSTKKFSTLPNAKYFSFLSEDFFTWEPAEKFDLIFDYTFFCAFEPGVRPLWAQRMEKLLKPGGELITLMFPIDERSGGPPYEVSVSEYEKVLIPLGFEAISIVDNELAVGPRKGMEKLGRWKKSSTFHSTL", "soluble on expression in E. coli": "soluble"},
      {"sequence": "GKRDNLEIDRTGLALTAFYARNLAVPERRRVEHPQVLRGKQLFHEAGCPACHVPKFVTHRLKDQPEQSFQLIWPYTDLLLHDMGEGLADGRPEGRATGREWRTAPLWGIGLTEQVSGHANFLHDGRARSILEAVLWHGGEAEAARARVMALPAPDRAALVAFVEDL", "soluble on expression in E. coli": "not soluble"},
      {"sequence": "MNVQETYLKELKARGYQPDEAQQRAVDRLQLCYDEWVAYKARRSSALRKLLVRPELPRGVYMWGGVGRGKSFLMDAFYSCVPVVRKTRLHFHEFMREVHRQLEELRGRADPLDELARRIAKRYRLICFDEFHVSDVADAMILHRLLDQLFANGVQFVMTSNYRPDLLYPDGLHRDRVLPAIALLQEKLDVLNVDAGIDYRKRAMEQVQAYHTPLGAQANSALRDAFAAVAEAPDESPILHIEHREIRAQRKAGGVVWFDFATLCGGPRSQNDYLEIAARFHTVILADVPKMTPRMASEARRFTWLIDVLYDHKVKLLMSAEVPADALYTEGQMANEFHRTVSRIIEMQSREYLEAPRRAVDTTLTLEHHHHHH", "soluble on expression in E. coli": "not soluble"},
      {"sequence": "MVVTCPKCGAKNRLGTPPPGQVPVCGACKTPLPWVVEADEKGFAQEVAGAPLTLVDFFAPWCGPCRLVSPILEELARDHAGRLKVVKVNVDEHPGLAARYGVRSVPTLVLFRRGAPVATWVGASPRRVLEERLRPYLEGR", "soluble on expression in E. coli": "soluble"},
      {"sequence": "MTKISERNIKVARKNVCKNIQRLNKKLSNKIKNEEAALPDIIAGTHGTPIEKLLTLYKLSDPIFTAIRPFTACRYGCSACCHYKVDLLPIEAELIAISLGQAPLPLPTTFQNGHGKRCPFLSKNGQCNIYSIRPMACRRHFMFTNSDYWCNPVHSEDIKIKMLGFSGIIEAYINIANQDGRYSPENIRDIRDYFTAGIDADVNARELDSELEHHHHHH", "soluble on expression in E. coli": "not soluble"},
      {"sequence": "MGSDKIHHHHHHVSRLDQLNDWLHQALQGKPHHLTTASADASFRRYFRVHLADGATLIAMDAPPPQEDCRPFVKVAALFEQAGLNVPKVLAQDVENGFLLLTDLGAQTFLDVLNEDNADTLFRDAIDALVTWQLASRPGVLPAYDEALLRRELCLFPDWYVARHLNVELSESQRSTLENAFSTIVRYNLAQPSVYVHRDYMPRNLMISTPSPGILDFQDAVYGPISYDVASLFKDAFISWQEERVLDGTIRYWEKARKAGLPVRSDFGDFYRDFEWMGLQRHLKVLGIFARIHYRDGKPKYLADTPRFMNYVRQVCVRYGELRPLLRLLDELEKREPQFGYTF", "soluble on expression in E. coli": "not soluble"},
      {"sequence": "MRIQFEIKESLINILDQLMHSDFWATEIKEDESGKKIIKIKDLAYNLEAVAEVMGNEIFIRTALSKYTYRIYEVKGECWCEYVGAYRGFLEQKLLPIITPKENLLECEVLDSSILGGKQKTLREYAEDNLKLKKFREQNFGNNGFSKADHPRRVYDEFIKEDFIPEDKKGHSLNITKSAN", "soluble on expression in E. coli": "not soluble"},
      {"sequence": "MAHHHHHHMDEYDYNYATYDIDNFTNNFEDNLINYNQIDFINDNAEINNYSNEYYAYDEDLVEENVSEKRIHNKVLLSNDNEFDNNLINISNEIKTENSNNDTSLLKKRKIINDILLNIKKKMKKNDTLCIICLQNEKKYTFTCCYEYYCSLECFKKHDQQKCRNQNKNEPKISGSHNINMDDIKNSNHQKYEDTYYYQNEEDINKKQNDKVIENTIKLDNENKKNEINNINDMDTTCSNFPNNNLSTSLLNNDNNIPNNNENSESSDDYTDDYDMLTEEQKKKLKEDHTLKILLKNNYVREVFKQFTLSNDKIGYLSHYINDPTIVQVIDHIMKTIDDT", "soluble on expression in E. coli": "not soluble"},
      {"sequence": "MSLLMKGTYCLIINCRGTERRIGSLGTVRFPPGFYVYVGSGFSSLEARIKRHLSSEKRRRWHIDHFLDGAEVECVLYTTDKRRLECAVSEKLHGEKSVRGFGCSDCSCKSHLHHFKNKNDATESVKRAFRELGAEVHEWGIEGHHHHHH", "soluble on expression in E. coli": "soluble"},
      {"sequence": "MKNAETPVFKLVLFGPESSLGNALMVELLSRQHEVIAVVDDLNRHSPRPGLHFKIGGLGDAHQAEQGAAGGSAVIALLPALAPGDLPGQARLSEALVAGLARTTIRRLLLVGDFDVLDEPGKYSEVERECVAQVVDGLQRSALHWTLINAPQELAGLGMEHFRSTEGTLEPGLAEPLRRLSRIAAGMVDMLELDLHRSEHLNFVV", "soluble on expression in E. coli": "not soluble"},
      {"sequence": "MGSDKIHHHHHHMKKLRKIIEINEELCNGCGQCISACAESALALVNGKARVVSDNLCDGLGTCIGECPTGALKIVEREAEEFDAQAVEIARSCPSTRMVMTFTAGTPSSEARPSALSHWPVKIRLIPENAPFLKGADLLVVADCVPVAFSDLHGRFLPGKVVMAGCPKFDEAQPYIEKFAGIFHNAGIRRVTVLTMEVPCCSGLPILVRKGMELAGVRVPMEVAVISTRGEILDKTA", "soluble on expression in E. coli": "not soluble"},
      {"sequence": "MSKQAFQKIYTKITNITKATCSLRATGVGNEELATIDGRLAQVVRIQGEDVTLQVFAGTEGIPTDAEVIFMGKAPSLKVGDQLAGRFFNAYGEPIDGGPQPEGKEVEIGGPSVNPVRRKQPSELIATGIAGIDLNNTLVTGQKIPFFADPDQPFNQVMAMVALRAESDKIILGGMGMTNDDYLFFKNTFSNAGALDRIVSFINTTEDPSVERILVPDMALAAAEYFAVEKHEKVLVLLTDMTNYADALAIVSNRMDQIPSKDSMPGSLYSDLAKIYEKAVQFPDGGSITIIAVTTLSGGDITHAVPDNTGYITEGQLYLRRDSNVGKVIVDPFRSLSRLKQLVIGKKTREDHPQVMNAAVRLFSDAANAQTKMENGFDLTDYDNRALEFANDYSRQLLAIDVNVNTTEMLDTAWELFSKHFKPAEVNIKQQLVDTYWKK", "soluble on expression in E. coli": "not soluble"}
    ]}
  ]
}
